Source: patent publication US20160137696A1 (Bristol-Myers Squibb, published 2016)
Starred links: 1 amine or outer side, 2 acyl side, 3 side chain; linkers in the order of their positions; H or OH if unused. Positions of bridges follow the written chain, without caps; N, C: chain ends. Non-standard residues stand in square brackets, D forms with d. Groups on a side chain read outwards from the residue. Primed or numbered codes have the meaning given here. No end group written: not given here. *: point of attachment. PEG8′ = PEG8 unit (23-azido-3,6,9,12,15,18,21-heptaoxatricosyl, i.e. an eight-unit PEG spacer) linking the triazole to vitamin E succinate; Pra′ = propargylglycine (built in as LPH), clicked to a 1-substituted triazol-4-yl-alanine, O=C([C@H](Cc1cn([*:3])nn1)N[*:1])[*:2]; X1 = (S)‑3‑carboxy‑3‑(15-carboxypentadecanoylamino)propyl, O=C(O)CCCCCCCCCCCCCCC(=O)N[C@@H](CC*)C(=O)O; Pra″ = its azide, alkyne or alkene has reacted where a group follows in round brackets; X2 = (S)‑3‑carboxy‑3‑palmitamidopropyl, CCCCCCCCCCCCCCCC(=O)N[C@@H](CC*)C(=O)O; Phe(4-OMe)″ = p-methoxyphenylalanine, COc1ccc(C[C@H](N[*:1])C(=O)[*:2])cc1; Pra(3) = propargylglycine, clicked to an azide to give a triazolyl-alanine; triazole = 1,2,3-triazole formed by click of the Pra alkyne with the azide; Trp(1-CH2CO) = O=C([C@H](Cc1cn(CC(=O)[*:3])c2ccccc12)N[*:1])[*:2]; Tyr(Me) = O-methyl-tyrosine, COc1ccc(C[C@H](N[*:1])C(=O)[*:2])cc1; C18 diacid = O=C(O)CCCCCCCCCCCCCCCCC(=O)*; Phe(4-F) = N[C@@H](Cc1ccc(F)cc1)C(=O)O; γGlu = O=C(O)[C@H](CCC(=O)[*:2])N[*:1]; Hyp = O=C(O)[C@@H]1C[C@@H](O)CN1; NMeF = CN[C@@H](Cc1ccccc1)C(=O)O; F3Phe = trifluoro-phenylalanine; dHyp = O=C(O)[C@H]1C[C@H](O)CN1; NMeNle = CCCC[C@H](NC)C(=O)O; Suc = O=C(CCC(=O)[*:2])[*:1]; triazole″ = not defined here; Pip = O=C(O)[C@@H]1CCCCN1; NMeA = CN[C@@H](C)C(=O)O; Pra = C#CC[C@H](N)C(=O)O; Dab = NCC[C@H](N)C(=O)O; Dap = NC[C@H](N)C(=O)O

B1: INT-130AD (peptide)
peptide: {CH2CO}-Y[NMeA]NP[Dap]L[Hyp]W[Dab][Trp(1-CH2CO)][NMeNle][NMeNle]ECG[Pra]-OH
modifications: thioether N-14
SMILES: C#CC[C@H](NC(=O)CNC(=O)[C@@H]1CSCC(=O)N[C@@H](Cc2ccc(O)cc2)C(=O)N(C)[C@@H](C)C(=O)N[C@@H](CC(N)=O)C(=O)N2CCC[C@H]2C(=O)N[C@@H](CN)C(=O)N[C@@H](CC(C)C)C(=O)N2C[C@H](O)C[C@H]2C(=O)N[C@@H](Cc2c[nH]c3ccccc23)C(=O)N[C@@H](CCN)C(=O)N[C@@H](Cc2cn(CC(=O)O)c3ccccc23)C(=O)N(C)[C@@H](CCCC)C(=O)N(C)[C@@H](CCCC)C(=O)N[C@@H](CCC(=O)O)C(=O)N1)C(=O)O
B2: INT-130AE (peptide)
peptide: {CH2CO}-Y[NMeA]DP[Dap]L[Hyp]W[Dab][Trp(1-CH2CO)][NMeNle][NMeNle]ECG[Pra]-OH
modifications: thioether N-14
SMILES: C#CC[C@H](NC(=O)CNC(=O)[C@@H]1CSCC(=O)N[C@@H](Cc2ccc(O)cc2)C(=O)N(C)[C@@H](C)C(=O)N[C@@H](CC(=O)O)C(=O)N2CCC[C@H]2C(=O)N[C@@H](CN)C(=O)N[C@@H](CC(C)C)C(=O)N2C[C@H](O)C[C@H]2C(=O)N[C@@H](Cc2c[nH]c3ccccc23)C(=O)N[C@@H](CCN)C(=O)N[C@@H](Cc2cn(CC(=O)O)c3ccccc23)C(=O)N(C)[C@@H](CCCC)C(=O)N(C)[C@@H](CCCC)C(=O)N[C@@H](CCC(=O)O)C(=O)N1)C(=O)O
B3: Example 14124 (peptide)
peptide: {CH2CO}-F[Pip]DP[Dap]L[Hyp]W[Dab]W[NMeNle][NMeNle]LCGD
modifications: thioether N-14; not fully specified (residues 1, 10, 16, C-terminus); also: residue 1 written Tyr(4-F)
B4: INT-1300V (peptide)
peptide: {CH2CO}-Y[NMeA]NP[Dap]L[Hyp]W[Dab][Trp(1-CH2CO)][NMeNle][NMeNle]LCG[Pra]-OH
modifications: thioether N-14
SMILES: C#CC[C@H](NC(=O)CNC(=O)[C@@H]1CSCC(=O)N[C@@H](Cc2ccc(O)cc2)C(=O)N(C)[C@@H](C)C(=O)N[C@@H](CC(N)=O)C(=O)N2CCC[C@H]2C(=O)N[C@@H](CN)C(=O)N[C@@H](CC(C)C)C(=O)N2C[C@H](O)C[C@H]2C(=O)N[C@@H](Cc2c[nH]c3ccccc23)C(=O)N[C@@H](CCN)C(=O)N[C@@H](Cc2cn(CC(=O)O)c3ccccc23)C(=O)N(C)[C@@H](CCCC)C(=O)N(C)[C@@H](CCCC)C(=O)N[C@@H](CC(C)C)C(=O)N1)C(=O)O
B5: INT-1300W (peptide)
peptide: {CH2CO}-Y[NMeA]NP[Dap]L[Hyp]W[Dab][Trp(1-CH2CO)][NMeNle][NMeNle]LCG[Pra]
modifications: thioether N-14; not fully specified; printed as ClAc-Tyr-[N-Me]Ala-Asn-Pro-Dap-Leu-Hyp-Trp-Dab-Trp(1-carboxymethyl)-[N-Me]Nle-[N-Me]Nle-Leu-Cys-Gly-[(S)-propargylglycine]
B6: INT-1400I (peptide)
peptide: {CH2CO}-Y[NMeA]NP[Dap]L[Hyp]WS[Trp(1-CH2CO)][NMeNle][NMeNle]ECG[Pra]
modifications: thioether N-14; not fully specified (C-terminus); printed as ClAc-Tyr-mAla-Asn-Pro-Dap-Leu-Hyp-Trp-Ser-Trp(1-carboxymethyl)-mNle-mNle-E-Cys-Gly-[(S)-propargylglycine], cyclised ClAc-Cys
notes: also called Intermediate 1400I
B7: Example 14086 (peptide)
peptide: YADPHKPWKWXXECGXD
modifications: as m110 (INT 1400E); Pra triazole-linked to vitamin E succinate 5-azidopentylamide
B8: INT-1400L (peptide)
peptide: {CH2CO}-[F3Phe][NMeF][NMeNle][dHyp]DV[NMeF]D[dP]WYLCG[Pra]
modifications: thioether N-13; not fully specified (C-terminus); printed as ClAc-F3Phe-mPhe-mNle-dHyp-Asp-Val-mPhe-Asp-dPro-Trp-Tyr-Leu-Cys-Gly-[(S)-propargylglycine]
notes: also called Intermediate 1400L
B9: Example 14085 (peptide)
peptide: YADPHKPWKWXXECGX
modifications: as m102 (INT 1300Y); Pra triazole-linked to vitamin E succinate 5-azidopentylamide
B10: Example 14082 (peptide)
peptide: YADPHKPWKWXXECGX
modifications: as m115 (INT 1400J); Pra triazole-linked to vitamin E succinate 5-azidopentylamide
B11: INT-130AA (peptide)
peptide: {CH2CO}-Y[NMeA]NP[Dap]L[Hyp]W[Dab][Trp(1-CH2CO)][NMeNle][NMeNle]LCGG[Pra]-OH
modifications: thioether N-14
SMILES: C#CC[C@H](NC(=O)CNC(=O)CNC(=O)[C@@H]1CSCC(=O)N[C@@H](Cc2ccc(O)cc2)C(=O)N(C)[C@@H](C)C(=O)N[C@@H](CC(N)=O)C(=O)N2CCC[C@H]2C(=O)N[C@@H](CN)C(=O)N[C@@H](CC(C)C)C(=O)N2C[C@H](O)C[C@H]2C(=O)N[C@@H](Cc2c[nH]c3ccccc23)C(=O)N[C@@H](CCN)C(=O)N[C@@H](Cc2cn(CC(=O)O)c3ccccc23)C(=O)N(C)[C@@H](CCCC)C(=O)N(C)[C@@H](CCCC)C(=O)N[C@@H](CC(C)C)C(=O)N1)C(=O)O
notes: also called Intermediate 130AA

Molecular target: T1, Recombinant Human PD-L1-TVMV-His (human, UniProt Q9NZQ7 19-239)
T1 construct: expressed in HEK293T cells; also called PD-L1-His; hPD-L1(19-239)-TVMV-His
Assay: HTRF vs PD-1-Ig; B = IC50 0.01-0.099 µM
Protocol: Homogenous Time-Resolved Fluorescence (HTRF) Assays of Binding of Soluble PD-1 to Soluble PD-L1. Soluble PD-1 and soluble PD-L1 refers to proteins with carboxyl-end truncations that remove the transmembrane-spanning regions and are fused to heterologous sequences, specifically the Fc portion of the human immunoglobuling G sequence (Ig) or the hexahistidine epitope tag (His). All binding studies were performed in an HTRF assay buffer consisting of dPBS supplemented with 0.1% (w/v) bovine serum albumin and 0.05% (v/v) Tween-20. For the PD-1-Ig/PD-L1-His binding assay, inhibitors were pre-incubated with PD-L1-His (10 nM final) for 15 m in 4 μl of assay buffer, followed by addition of PD-1-Ig (20 nM final) in 1 μl of assay buffer and further incubation for 15 m. PD-L1 fusion proteins from either human, cynomologous macaques, mouse, or other species were used. HTRF detection was achieved using europium crypate-labeled anti-Ig monoclonal antibody (1 nM final) and allophycocyanin (APC) labeled anti-His monoclonal antibody (20 nM final). Antibodies were diluted in HTRF detection buffer and 5 μl was dispensed on top of binding reaction. The reaction was allowed to equilibrate for 30 minutes and signal (665 nm/620 nm ratio) was obtained using an EnVision fluorometer. Additional binding assays were established between PD-I-Ig/PD-L2-His (20 and 5 nM, respectively), CD80-His/PD-L1-Ig (100 and 10 nM, respectively) and CD80-His/CTLA4-Ig (10 and 5 nM, respectively). Binding/competition studies between biotinylated Compound No. 71 and human PD-L1-His were performed as follows. Macrocyclic peptide inhibitors were pre-incubated with PD-L1-His (10 nM final) for 60 minutes in 4 μl of assay buffer followed by addition of biotinylated Compound No. 71 (0.5 nM final) in 1 μl of assay buffer. Binding was allowed to equilibrate for 30 minutes followed by addition of europium crypated labeled Streptavidin (2.5 pM final) and APC-labeled anti-His (20 nM final) in 5 μl of HTRF buffer. The reaction was allowed to equilibrate for 30 m and signal (665 nm/620 nm ratio) was obtained using an EnVision fluorometer.

T1 sequence (Q9NZQ7 other isoform, or with tags, fused parts or gaps limits assumed): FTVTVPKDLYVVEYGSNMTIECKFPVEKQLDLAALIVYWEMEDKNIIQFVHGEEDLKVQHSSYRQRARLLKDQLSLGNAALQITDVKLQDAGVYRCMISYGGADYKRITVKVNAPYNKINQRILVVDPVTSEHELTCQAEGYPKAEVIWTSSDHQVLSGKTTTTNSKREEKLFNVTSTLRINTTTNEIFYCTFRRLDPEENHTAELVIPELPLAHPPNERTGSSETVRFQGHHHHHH

Binder	IC50
B1	10 to 99 nM
B2	10 to 99 nM
{CH2CO}-[Tyr(Me)][Pip]DP[Dap]Q[Hyp]W[Dab][Trp(1-CH2CO)][NMeNle][NMeNle]ECG[Pra″]([triazole-(S)‑18‑((3-azido-1-carboxypropyl)amino)‑18‑oxooctadecanoic acid]) (thioether N-14) [Example 14121]	10 to 99 nM
{CH2CO}-[Phe(4-F)][Pip]DP[Dap]L[Hyp]W[Dab][Trp(1-CH2CO)][NMeNle][NMeNle]LCG[Pra″]([triazole-(S)‑18‑((3-azido-1-carboxypropyl)amino)‑18‑oxooctadecanoic acid]) (thioether N-14; also: residue 1 written Tyr(4-F)) [Example 14122]	10 to 99 nM
B3	10 to 99 nM
{CH2CO}-Y[Pip]NP[Dap]L[Hyp]W[Dab][Trp(1-CH2CO)][NMeNle][NMeNle]LCG[Dab]([γGlu-C18 diacid]) (thioether N-14 (inferred)) [Example 13149]	10 to 99 nM
{CH2CO}-[Phe(4-OMe)″][Pip]NPHL[Hyp]W[Dab][Trp(1-CH2CO)][NMeNle][NMeNle]LCG[Dab]([γGlu-C18 diacid]) (thioether N-14 (inferred)) [Example 13151]	10 to 99 nM
B4	10 to 99 nM
B5	10 to 99 nM
{CH2CO}-Y[NMeA]NP[Dap]L[Hyp]WS[Trp(1-CH2CO)][NMeNle][NMeNle]LCG[Pra] (thioether N-14, also called Intermediate 1300X) [INT-1300X]	10 to 99 nM
{CH2CO}-Y[NMeA]NP[Dap]L[Hyp]WS[Trp(1-CH2CO)][NMeNle][NMeNle]ECG[Pra′]([triazole-X1]) (thioether N-14) [Example 14070]	10 to 99 nM
B6	10 to 99 nM
{CH2CO}-Y[NMeA]DPHK[Hyp]WKW[NMeNle][NMeNle]ECG[Pra(3)]([triazole″-X2])D (thioether N-14; reading uncertain) [Example 14061]	10 to 99 nM
{CH2CO}-Y[NMeA]DPHK[Hyp]WKW[NMeNle][NMeNle]ECG[Pra′]([triazole-X1])D (thioether N-14) [Example 14065]	10 to 99 nM
{CH2CO}-Y[NMeA]DPHK[Hyp]WK[Trp(1-CH2CO)][NMeNle][NMeNle]ECG[Pra′]([triazole-X1])D (thioether N-14) [Example 14071]	10 to 99 nM
B7	10 to 99 nM
B8	10 to 99 nM
{CH2CO}-Y[NMeA]DPHK[Hyp]WKW[NMeNle][NMeNle]ECG[Pra″]([triazole″-PEG8′-Suc-vitamin E])G (thioether N-14; reading uncertain) [Example 14052]	10 to 99 nM
B9	10 to 99 nM
B10	10 to 99 nM
B11	10 to 99 nM
